± gives the uncertainty stated by the source.
Assay: protein stability index of a GFP-peptide fusion (yeast GPS) (PSI 1-4); higher = more stable; sorted into four equal gates, so the index is relative within each strain
Details: pdr5∆
Procedure, shortened: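 The protein stability index of a peptide was calculated by multiplying its read frequency in each gate by that gate's number and adding the products. The peptides were tiled 17-residue stretches of yeast proteins, fused downstream of GFP on a Cherry-expressing plasmid and carried in yeast as a pooled library. Mid-log cultures in leucine-free medium were sorted into four equal gates by GFP/Cherry ratio, and each gate's plasmids were PCR-amplified and Illumina-sequenced.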
STKRVTKHPSLKTLTHK [POP7] gave a protein stability index of 2.78 ± 0.06. For STKTGTPSDLSESGSKL [POP1], the protein stability index was 3.35 ± 0.088. STNEDQNNSKHTEDTVN [SRB5] showed a protein stability index of 2.1 ± 0.077. STNHPDYDVSKKASEIS [SRP14] gave a protein stability index of 3 ± 0.24.

Same assay, conditions: san1∆
Sequence SIYDKWTDPNLKSSLAD [RPN1] has a protein stability index of 2.88 ± 0.062. SKAFKESSDFGAIILTK [SRP54] gave a protein stability index of 1.56 ± 0.17. SKAPAEKKPAAKKTSTS [HTB1] gave a protein stability index of 2.83 ± 0.08. In the case of SKEKANFLETIASTEKP [SIR4], the protein stability index is reported as 2.04 ± 0.1. In the case of SKEQIHGSIIILGMLSL [YCS4], the protein stability index is reported as 2.72 ± 0.049. SKIIVFPRNGKAPEAEQ [RPL13A] showed a protein stability index of 3.06 ± 0.062. In the case of SKILSQAPSELELQVAK [RPS7B], the protein stability index is reported as 2.95 ± 0.063. Work on SKKGKPTVNKKPKNKKK [SRP72] yielded a protein stability index of 2.45 ± 0.12. With SKNAERKWAARAASAKI [RPS8A] the protein stability index was 3.173 ± 0.022. In the case of SKQPNSAIRKCVRVQLI [RPS23A], the protein stability index is reported as 1.79 ± 0.096. For SKRLPLRFPEHTSSGSV [BRR2], the protein stability index was 2.74 ± 0.14. In the case of SKRPQLGEIPNPMKKHK [SIR4], the protein stability index is reported as 2.23 ± 0.089. For SKSAFSFGTANTNGTNA [YOR098C/NUP1], the protein stability index was 2.77 ± 0.14. Work on SKVIIKFLQVMQKHGYI [RPS22A] yielded a protein stability index of 1.76 ± 0.066. Sequence SKVSKQQAKGAFQKVAA [RPL24B] has a protein stability index of 2.78 ± 0.036. Work on SLDAREANFDLINIDTS [RPC40] yielded a protein stability index of 3.18 ± 0.058. SLDNKTLDDLVTKWTNQ [YJL041W/NSP1] gave a protein stability index of 3.05 ± 0.062. SLEALIDLCHDFPHLTP [YCS4] gave a protein stability index of 2.56 ± 0.049. With SLEDPQVRKKQIETINF [YDL116W/NUP84] the protein stability index was 2.19 ± 0.11. SLEEIIAEGQKKFATVP [RPP2B] gave a protein stability index of 2.93 ± 0.061. In the case of SLGSSSTTASGTTATGT [YGR119C/NUP57], the protein stability index is reported as 3.08 ± 0.067. For SLIRNNLHAEGWPKLQL [ECM29], the protein stability index was 1.32 ± 0.17. Sequence SLKALASKYNCDKSVCR [RPL40A] has a protein stability index of 3.12 ± 0.054. Sequence SLLESGSEILGDLKLQV [RPO21] has a protein stability index of 2.53 ± 0.21. Sequence SLLLKNYLNDMHDSNLQ [SKP1] has a protein stability index of 1.81 ± 0.093. Work on SLMDTLITPAVRNTAPN [YCG1] yielded a protein stability index of 1.26 ± 0.19. For SLMSSQNKLFYITNADD [SIR3], the protein stability index was 3.07 ± 0.16. SLNLQYVNYEISTAKAW [YML103C/NUP188] showed a protein stability index of 2.55 ± 0.074. Sequence SLNLTDDVISNAGTNDN [MCD1] has a protein stability index of 3.11 ± 0.036. SLNSMTNAKLPNVDLVT [RGR1] showed a protein stability index of 2.52 ± 0.061. For SLQNNLQNNINNSNNNN [SNF11], the protein stability index was 3.31 ± 0.066. With SLRRIRDEMSKAELPQW [MED8] the protein stability index was 2.33 ± 0.072. SLTYKKISLRDICLKLN [RPN3] gave a protein stability index of 1.44 ± 0.13. Sequence SLYQVDPSGSYFPWKAT [PRE8] has a protein stability index of 2.65 ± 0.093. With SLYTNTSRKALEEVSLK [RPL3] the protein stability index was 2.33 ± 0.14. SLYTSREPRVVSALQML [PUP1] showed a protein stability index of 3.03 ± 0.061. SMDVDDKNSGVKSEVDV [ITC1] showed a protein stability index of 1.78 ± 0.094. For SMILIQQTEKLNPQVAD [RPN2], the protein stability index was 1.65 ± 0.073. For SMRVKPSASLKLHHDLK [YMR129W/POM152], the protein stability index was 2.95 ± 0.062. For SMSGRISAKDMGQGLCN [BRR2], the protein stability index was 3.02 ± 0.076. For SMTATADVLAMAKVEVN [RIP1], the protein stability index was 2.43 ± 0.15. For SNGIFYGPSFTKRESLN [SIR2], the protein stability index was 2.65 ± 0.056. Sequence SNLQRAQNVPMNIIQQQ [GAL11] has a protein stability index of 2.34 ± 0.078. With SNTTTHVPEKKSTDLTP [MTR3] the protein stability index was 2.15 ± 0.18. Sequence SNTVNANNYSSNIGNNS [YDL088C/ASM4] has a protein stability index of 3.33 ± 0.12. With SPGSPAYSPKQDEQKHN [RPO21] the protein stability index was 3.2 ± 0.11. SPPCYIIDHIPGHSLLL [SNF5] showed a protein stability index of 2.3 ± 0.079. Work on SPPPQTHQSPPPPPQQS [SNF5] yielded a protein stability index of 2.75 ± 0.032. Work on SPQQFLRAHTDDSRNPD [PRE2] yielded a protein stability index of 2.7 ± 0.079. SPSEFVDVAIPCNNRGK [RPS0A] showed a protein stability index of 1.61 ± 0.093. Work on SPSTSANVPSTATTGKR [RPN4] yielded a protein stability index of 2.62 ± 0.11. For SPVRSDSADVPAFSNSN [YMR153W/NUP53], the protein stability index was 3.21 ± 0.12. In the case of SQISPEKQTPNKKDKKK [RPN1], the protein stability index is reported as 3.09 ± 0.06. In the case of SQLAQVAAFVNNYPNVE [BRR2], the protein stability index is reported as 2.68 ± 0.067. With SQLLLERLMISSDAFEV [RET1] the protein stability index was 1.98 ± 0.058. With SQNDGFVIIRGSQILSG [RPO31] the protein stability index was 2.86 ± 0.16. SQPTNSTTTSLHVPNLQ [SMC4] gave a protein stability index of 2.21 ± 0.052. SQTTLVQFGLNEETFTV [ARP9] showed a protein stability index of 2.77 ± 0.069. SRGGVTQVRVEFLEDTS [RPS28A] showed a protein stability index of 3.16 ± 0.052. Work on SRGLFEKKLMQDNKQLY [YDL116W/NUP84] yielded a protein stability index of 3.11 ± 0.078. SRMRLIRQDVNLGRAVF [PRP8] gave a protein stability index of 2.04 ± 0.084. Sequence SRMTVGKMIELISGKAG [RET1] has a protein stability index of 3.05 ± 0.094. For SRNKALELNLSVLHSWV [YJL039C/NUP192], the protein stability index was 2.84 ± 0.08. SRPDILSKIKFPESIWK [YCG1] showed a protein stability index of 1.92 ± 0.058. Work on SSAHLIRINDEPILGQI [YML103C/NUP188] yielded a protein stability index of 2 ± 0.14. With SSASPSALTSPTDSSKI [SIR3] the protein stability index was 2.87 ± 0.045. SSDELKVIEEQLKHTKL [SMC4] showed a protein stability index of 3.04 ± 0.067. Sequence SSEFVSQDTKVICSVTG [RRP46] has a protein stability index of 2.43 ± 0.076. In the case of SSEGFYSKIKHLGLDDP [SIR2], the protein stability index is reported as 1.96 ± 0.17. In the case of SSFNFNKNLPFVWLSSE [SWI1], the protein stability index is reported as 1.84 ± 0.053. SSFTFGSTTIEKKNDEN [YLR335W/NUP2] gave a protein stability index of 3.08 ± 0.063. In the case of SSIDKKSSILTVLQKNS [YML103C/NUP188], the protein stability index is reported as 2.4 ± 0.067. SSIVAIDWASPEYGRII [YGL100W/SEH1] showed a protein stability index of 2.82 ± 0.079. SSLNLEDTPANDSSATR [RPB8] gave a protein stability index of 2.68 ± 0.063. With SSNPLGITGNLDRIPMH [COB] the protein stability index was 2.44 ± 0.065. With SSPLGFEETKLSTTPTK [SIR4] the protein stability index was 2.6 ± 0.054. Work on SSPSHIELVVTEKEEAV [RPL17A] yielded a protein stability index of 2.3 ± 0.059. Sequence SSPYAAMLAAQDVAAKC [RPS14B] has a protein stability index of 1.3 ± 0.082. With SSSPLAMSETLSKVSLL [PRE8] the protein stability index was 2.67 ± 0.1. With SSVEMLLDVVKGTEASN [YDL116W/NUP84] the protein stability index was 2.55 ± 0.052. Sequence STAAAPIAAPKKPRKPR [PGD1] has a protein stability index of 2.75 ± 0.057. Work on STEETTANTGTIGKRRT [TAF14] yielded a protein stability index of 3.38 ± 0.088. In the case of STELNNKQYELFMKSLI [SWI1], the protein stability index is reported as 3.16 ± 0.039. Sequence STEYMMQFAKSKTVKVL [RPN6] has a protein stability index of 1.2 ± 0.2. Sequence STGAADGGYNAQLAKAK [SMC2] has a protein stability index of 3.22 ± 0.084. STIDANFADKYDEVKKH [RPL8A] gave a protein stability index of 2.92 ± 0.081. Sequence STKRVTKHPSLKTLTHK [POP7] has a protein stability index of 2.56 ± 0.083. For STKTGTPSDLSESGSKL [POP1], the protein stability index was 3.24 ± 0.055. In the case of STNEDQNNSKHTEDTVN [SRB5], the protein stability index is reported as 1.65 ± 0.1. STPDQRKRVYNIKFLSK [ESC2] showed a protein stability index of 2.81 ± 0.08.

Same assay, conditions: ubr1∆
Sequence SIVGVDLSSAASASGAA [FAS2] has a protein stability index of 1.62 ± 0.18. With SIYDKWTDPNLKSSLAD [RPN1] the protein stability index was 3.19 ± 0.054.

Reference: the supplement of paper PMC9732359
